The values below come from US20040001835A1, “Prevention or treatment of cancer using integrin alphavbeta3 antagonists in combination with other agents” (MedImmune, Inc., priority 2002, published 2004).

One test has as its system Rabbit αvβ3. The test can be described thus: 125-labeled Vitaxin binding affinities and number of binding sites on cell lines. The conditions noted are these: for Kd: read-out: Kp. From the text:
(§1) ^125-labeled Vitaxin® was used to determine binding affinities and number of binding sites for human, rabbit and hamster cell lines. The affinity of Vitaxin® for hamster αvβ3 was approximately 2-3 fold lower than human αvβ3 while its affinity for rabbit αvβ3 was about 4-10 fold lower than human αvβ3.

The next test addresses T1, human αvβ3 (Homo sapiens, UniProt P05106).
T1 construct: endogenous in cells; host or cells: M21 melanoma, HMVEC, HUVEC
The description is as above. The following applies: for Kd: read-out: Kp.
Text: as §1

The target of test [1] is T2, human β3 complexed to endogenous mouse αv (Homo sapiens, UniProt P05106).
T2 construct: expressed in transfected cells; host or cells: B16F10 mouse melanoma
T2 sequence (P05106 27-788): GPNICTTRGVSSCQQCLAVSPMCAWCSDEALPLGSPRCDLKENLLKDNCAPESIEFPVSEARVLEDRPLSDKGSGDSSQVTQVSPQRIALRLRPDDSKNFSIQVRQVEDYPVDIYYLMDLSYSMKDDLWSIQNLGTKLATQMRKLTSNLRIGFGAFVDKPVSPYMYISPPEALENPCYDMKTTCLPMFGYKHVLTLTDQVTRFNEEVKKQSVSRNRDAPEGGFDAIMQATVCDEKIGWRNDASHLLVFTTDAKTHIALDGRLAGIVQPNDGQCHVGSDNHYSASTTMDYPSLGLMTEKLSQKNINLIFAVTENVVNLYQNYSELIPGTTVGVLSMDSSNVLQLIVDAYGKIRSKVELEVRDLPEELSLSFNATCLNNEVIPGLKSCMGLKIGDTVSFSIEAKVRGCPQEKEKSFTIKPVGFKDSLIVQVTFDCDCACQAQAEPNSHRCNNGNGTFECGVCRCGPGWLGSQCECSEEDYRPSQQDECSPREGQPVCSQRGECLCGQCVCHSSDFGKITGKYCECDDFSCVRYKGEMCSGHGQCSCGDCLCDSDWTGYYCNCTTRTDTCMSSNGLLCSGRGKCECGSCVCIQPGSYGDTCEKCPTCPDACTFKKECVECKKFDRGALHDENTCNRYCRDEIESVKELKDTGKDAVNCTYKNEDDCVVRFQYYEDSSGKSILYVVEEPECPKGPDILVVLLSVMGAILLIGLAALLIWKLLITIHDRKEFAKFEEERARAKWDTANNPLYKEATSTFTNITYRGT
T2 sequence (P43406 31-885 partner limits assumed): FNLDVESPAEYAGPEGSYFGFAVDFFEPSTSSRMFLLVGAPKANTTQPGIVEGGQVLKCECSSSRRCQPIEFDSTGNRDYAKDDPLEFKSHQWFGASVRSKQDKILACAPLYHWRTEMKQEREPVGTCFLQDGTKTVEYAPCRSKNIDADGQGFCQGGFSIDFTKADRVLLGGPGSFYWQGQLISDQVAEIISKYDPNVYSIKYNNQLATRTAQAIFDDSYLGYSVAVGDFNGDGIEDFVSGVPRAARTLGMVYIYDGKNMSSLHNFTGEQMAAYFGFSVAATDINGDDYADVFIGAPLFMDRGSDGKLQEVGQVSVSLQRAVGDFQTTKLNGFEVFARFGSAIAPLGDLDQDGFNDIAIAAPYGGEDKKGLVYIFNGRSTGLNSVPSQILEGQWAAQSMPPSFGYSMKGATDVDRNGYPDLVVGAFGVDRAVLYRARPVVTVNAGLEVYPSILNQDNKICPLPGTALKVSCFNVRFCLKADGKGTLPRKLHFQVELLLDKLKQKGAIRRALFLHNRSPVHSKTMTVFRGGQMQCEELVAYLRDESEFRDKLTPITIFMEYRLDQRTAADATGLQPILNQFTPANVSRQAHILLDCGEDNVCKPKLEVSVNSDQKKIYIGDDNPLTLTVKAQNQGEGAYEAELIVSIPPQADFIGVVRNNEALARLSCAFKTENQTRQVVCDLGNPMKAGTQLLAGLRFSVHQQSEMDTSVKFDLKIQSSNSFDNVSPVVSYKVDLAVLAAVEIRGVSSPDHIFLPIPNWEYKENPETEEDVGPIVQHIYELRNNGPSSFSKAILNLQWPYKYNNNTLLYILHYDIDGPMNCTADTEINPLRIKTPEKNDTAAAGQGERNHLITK
T2 sequence (P43406 887-1044 partner limits assumed): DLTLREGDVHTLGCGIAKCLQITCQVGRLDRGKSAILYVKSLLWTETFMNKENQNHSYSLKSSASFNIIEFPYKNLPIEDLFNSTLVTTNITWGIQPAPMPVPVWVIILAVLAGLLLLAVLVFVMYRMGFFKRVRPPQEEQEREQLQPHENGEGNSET
The test can be described thus: Flow cytometric analysis of binding to human β3 transfected B16F10 cells. The following applies: mouse melanoma B16F10, human β3 with endogenous mouse αv, FACS, FIG. 3. As to the method: FIG. 3. Flow cytometric analysis of binding of Vitaxin® to human β3 transfected B16F10 cells. In order to determine the binding specificity of Vitaxin® for αvβ3, the mouse melanoma line B16F10 was transfected with an expression vector encoding the human β3 gene. Cells were analyzed by FACS for expression of β3 expressed with the endogenous mouse αv.

Where [2] appears, read: Human HUVEC primary endothelium.

Entries after “also recorded” stand apart in the source; their conditions may differ. Where two headings read alike, the source gives them in different places.

T1 sequence (P06756 31-889 partner limits assumed, one chain of several): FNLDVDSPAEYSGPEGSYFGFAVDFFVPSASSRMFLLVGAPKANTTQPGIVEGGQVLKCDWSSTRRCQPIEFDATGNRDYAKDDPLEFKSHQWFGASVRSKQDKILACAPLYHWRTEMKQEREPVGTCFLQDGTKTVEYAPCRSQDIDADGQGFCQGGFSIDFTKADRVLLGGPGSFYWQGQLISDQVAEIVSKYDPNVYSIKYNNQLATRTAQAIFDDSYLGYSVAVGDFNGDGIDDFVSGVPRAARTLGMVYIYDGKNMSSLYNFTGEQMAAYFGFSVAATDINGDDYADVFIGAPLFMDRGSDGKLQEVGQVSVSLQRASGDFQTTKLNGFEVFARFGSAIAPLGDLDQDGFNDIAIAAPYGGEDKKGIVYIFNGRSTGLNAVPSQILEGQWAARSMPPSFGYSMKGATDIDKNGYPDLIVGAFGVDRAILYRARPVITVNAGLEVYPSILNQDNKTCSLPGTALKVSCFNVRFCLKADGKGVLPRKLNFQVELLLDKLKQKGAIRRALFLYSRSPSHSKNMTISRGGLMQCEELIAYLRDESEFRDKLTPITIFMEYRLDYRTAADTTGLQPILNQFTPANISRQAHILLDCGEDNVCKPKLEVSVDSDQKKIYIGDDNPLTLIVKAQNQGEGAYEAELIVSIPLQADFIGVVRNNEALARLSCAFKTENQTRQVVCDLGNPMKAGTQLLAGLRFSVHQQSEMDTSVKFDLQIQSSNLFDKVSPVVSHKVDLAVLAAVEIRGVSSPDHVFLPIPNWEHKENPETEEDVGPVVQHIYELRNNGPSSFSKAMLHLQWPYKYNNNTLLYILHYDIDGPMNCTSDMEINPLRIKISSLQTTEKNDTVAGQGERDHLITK
T1 sequence (P06756 891-1048 partner limits assumed, one chain of several): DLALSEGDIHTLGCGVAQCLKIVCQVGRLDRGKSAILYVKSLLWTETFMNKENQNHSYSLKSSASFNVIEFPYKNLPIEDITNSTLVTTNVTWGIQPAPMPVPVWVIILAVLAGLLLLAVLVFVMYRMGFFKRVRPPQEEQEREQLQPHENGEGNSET

B1: Vitaxin®: humanized blocking monoclonal antibody that binds Integrin αVβ3 (MEDI-522, MedImmune); humanized and optimized version of LM609 (antibody, chains of the INN, looked up, V domains shown)
VH: QVQLVESGGGVVQPGRSLRLSCAASGFTFSSYDMSWVRQAPGKGLEWVAKVSSGGGSTYYLDTVQGRFTISRDNSKNTLYLQMNSLRAEDTAVYYCARHLHGSFASWGQGTTVTVSS
VL: EIVLTQSPATLSLSPGERATLSCQASQSISNFLHWYQQRPGQAPRLLIRYRSQSISGIPARFSGSGSGTDFTLTISSLEPEDFAVYYCQQSGSWPLTFGGGTKVEIK
Consider B1, for which the Kd in the test on Rabbit αvβ3 (Rabbit RK1 kidney epithelium) was found to be 23 nM; in the test on Rabbit αvβ3 (Rabbit VX7 carcinoma) it was 8.9 nM; in the test with human αvβ3 (setting [2]), 3.3 nM; in the test with human αvβ3 (Human M21 melanoma), 2.2 nM. Moreover, the “affinity for rabbit αvβ3, fold lower than human αvβ3” value with Rabbit αvβ3 (rabbit vs human cell lines) is 4-10 fold. Also, the results for the “Binding Sites” value with human αvβ3 (setting [2]) and with human αvβ3 (Human M21 melanoma) were 8.1 × 10^4 and 1.3 × 10^5, respectively. The “binding to human β3 transfected B16F10 cells” value in test [1] is on record as “bound; also recorded: recognized the transfected cells”.
